Source: US20110004951A1, “METHODS AND COMPOSITIONS FOR IDENTIFYING COMPOUNDS THAT INHIBIT HIV-1 SUBUNIT-SPECIFIC REVERSE TRANSCRIPTASE” (UAB Research Foundation, The, priority 2004, published 2011)

Columns and labels:
[1] = biological target: p66^W410A subunit of HIV-1 reverse transcriptase, expressed in trans (HIV-1 (pSG3)); experiment: cell-based or functional assay
[2] = biological target: p66 subunit of HIV-1 reverse transcriptase, expressed in trans with Met-Gly on the N-terminus (HIV-1 (pSG3)); experiment: cell-based or functional assay
[3] = biological target: p66^L234A subunit of HIV-1 reverse transcriptase, expressed in trans (HIV-1 (pSG3)); experiment: cell-based or functional assay
[4] = biological target: p66^W401A subunit of HIV-1 reverse transcriptase, expressed in trans (HIV-1 (pSG3)); experiment: cell-based or functional assay
[5] = biological target: p66^W410L subunit of HIV-1 reverse transcriptase, expressed in trans (HIV-1 (pSG3)); experiment: cell-based or functional assay
[6] = test system: M7 virions complemented with wildtype trans-RT (Vpr-p51/p66); experiment: Inhibition of trans-RT using NRTI and NNRTI, TZM-b1 reporter cell infectivity assay; format: cell-based, HIV-1; details: for antiviral effect, inhibition of infectivity: TZM-b1 indicator cells, 3TC 0.04, 0.2 and 1.0 μM, nevirapine 1.0, 5.0 and 5.0 μM as printed
Experimental: Virions derived by cotransfection with M7, vpr-p51/p66 and vpr-IN were used to infect the TZM-b1 reporter cell line. The two RT drugs, 3TC and nevirapine, were analyzed at concentrations of 0.04-1.0 μM for 3TC and 1.0-25.0 μM for nevirapine as described in Example 1. The results are expressed as a percentage of untreated virus.
The trans-heterodimer assay is of clinical relevance for analyzing HIV-1 RT inhibitors, drug resistance and the effects of drug resistance mutations on viral fitness. To examine the response of the trans-heterodimeric RT to anti-RT drugs, transfection-derived M7 virions complemented with wildtype trans-RT (Vpr-p51/p66) were used to infect the TZM-b1 indicator cells in the absence or presence of either 3TC (0.04, 0.2 and 1.0 μM) or nevirapine ([…]).
Virions were derived by cotransfection of 293T cells with M7, vpr-p51/p66 and vpr-IN. The TZM-b1 cells were seeded overnight in 24-well plates at a concentration of 40,000 cells in 250 μl of medium per well. The culture medium was removed and replaced with 250 μl of DMEM containing 1% FBS and 2× drug concentrations (5-fold dilutions). 250 μl of virus suspension normalized for equal IU, as determined by TZM-b1 assay (diluted in DMEM containing 1% FBS and 80 μg/ml DEAE-dextran), was then added to the cells. The two RT drugs used in this analysis, 3TC and nevirapine, were at final concentrations ranging from 0.04-1.0 μM and 1.0-25.0 μM, respectively. The cells were fixed 48 h post-infection, stained with X-gal reagent, and the blue-stained cells were counted using a light microscope as described above. The 50% inhibition concentration (IC50) was measured with a 95% confidence interval.

[7] = test system: HIV-1 NL4-3 with L234A, W398A, W401A and YMAA mutations; experiment: Infectivity of HIV-1 NL4-3 proviral clones with RT mutations, with efavirenz (FIG. 23); details: NL4-3 proviral clones with RT mutation, transfected into 293T cells
Experimental: Additional analysis of the W401A and W410A mutations was conducted in the context of the complete HIV-1 NL4-3 proviral clone. […] The non-infectious RT-minus M7 clone was included as negative control (lane 2). […] Probing a replica blot with mAb to CA confirmed that approximately the same amount of each virus was analyzed (FIG. 13C).

[8] = biological target: T1, p51W401A/p66W401A trans-heterodimeric RT (Human immunodeficiency virus type 1 group M subtype B, UniProt P04585, W988A); experiment: Effects of NNRTIs on trans-RT subunit interaction: immunoblot of virion-associated p66 from transfected 293T cells; format: cell-based, HIV-1; details: p51 W401A/p66 W401A RT mutants, FIG. 22
T1 construct: expressed in transfected cells; host or cells: 293T
Experimental: The dimerization enhancing NNRTI EFV was added to the culture medium 12 h after DNA transfection at concentrations ranging from 0.01-1.0 μM. The transfection-derived virions were collected 48 hours later and analyzed by immunoblot using mAbs to (A) RNase H and (B) CA.
At 24 h post-transfection, the specified concentrations of drug were added. […] The clarified supernatants were processed for and analyzed by immunoblot as described below.
Transfection-derived virions were concentrated by ultracentrifugation through 20% sucrose cushion (125,000×g, 2 hr, 4° C.) using a SW41 rotor (Beckman Inc.). […] The blocked blots were exposed to an appropriate primary antibody for 1 h in blocking buffer with constant mixing. After extension washing, bound antibodies were detected by chemiluminescence using horseradish peroxidase-conjugated species-specific secondary antibodies (Southern Biotechnology Associates, Inc.).

How did the virus infectivity, TZM-b1 reporter cells, percentage of wildtype trans heterodimer [1] turn out when Vpr-p51^N363A fusion protein was run?
The virus infectivity, TZM-b1 reporter cells, percentage of wildtype trans heterodimer was 35%.

How did the virus infectivity, TZM-b1 reporter cells, percentage of wildtype trans-RT heterodimer [2] turn out when Vpr-p51^W398A fusion protein was run?
Its virus infectivity, TZM-b1 reporter cells, percentage of wildtype trans-RT heterodimer is less than 50%.

Which virus infectivity, TZM-b1 reporter cells, percentage of wildtype trans heterodimer [3] does the source give for “Vpr-p51 fusion protein, wildtype, modified construct with 135 bps of PR sequence (45 amino acids) between Vpr and RT” here?
The virus infectivity, TZM-b1 reporter cells, percentage of wildtype trans heterodimer was less than 5%.

What about the virus infectivity, JLTRG-R5 reporter T cell line (EGFP), percentage of wildtype trans-RT [4] of the same molecule?
Its virus infectivity, JLTRG-R5 reporter T cell line (EGFP), percentage of wildtype trans-RT is 50%.

What about the virus infectivity, TZM-b1 reporter cells, percentage of wildtype trans heterodimer [4] of the same molecule?
The virus infectivity, TZM-b1 reporter cells, percentage of wildtype trans heterodimer was 40%.

What about the virus infectivity, TZM-b1 reporter cells, percentage of wildtype trans-RT [4] of the same molecule?
Its virus infectivity, TZM-b1 reporter cells, percentage of wildtype trans-RT is 40%.

Vpr-p51^W402A fusion protein was tested. Which virus infectivity, TZM-b1 reporter cells, percentage of wildtype trans-RT heterodimer [2] did it give?
The virus infectivity, TZM-b1 reporter cells, percentage of wildtype trans-RT heterodimer was less than 50%.

Which virus infectivity, TZM-b1 reporter cells, percentage of wildtype trans heterodimer [1] does the source give for Vpr-p51^W401L fusion protein here?
The virus infectivity, TZM-b1 reporter cells, percentage of wildtype trans heterodimer was 40%.

For Vpr-p51^W401A fusion protein, which virus infectivity, TZM-b1 reporter cells, percentage of wildtype trans heterodimer [1] is on record?
The virus infectivity, TZM-b1 reporter cells, percentage of wildtype trans heterodimer was 40%.

And the virus infectivity, TZM-b1 reporter cells, percentage of wildtype trans heterodimer [5]?
The virus infectivity, TZM-b1 reporter cells, percentage of wildtype trans heterodimer was 40%.

With Vpr-p51^W414A fusion protein as the molecule, how does the virus infectivity, TZM-b1 reporter cells, percentage of wildtype trans-RT heterodimer [2] read?
The virus infectivity, TZM-b1 reporter cells, percentage of wildtype trans-RT heterodimer was less than 50%.

Nc1ccn([C@@H]2CS[C@H](CO)O2)c(=O)n1 [3TC] was tested. Which “antiviral effect, inhibition of infectivity” value [6] did it give?
The value was “potent, dosage-dependent antiviral effect”.

For Vpr-p51^N363A;Y405A fusion protein, which virus infectivity, TZM-b1 reporter cells, percentage of wildtype trans heterodimer [2] is on record?
Its virus infectivity, TZM-b1 reporter cells, percentage of wildtype trans heterodimer is 35%.

What does the source list for Cc1ccnc2c1NC(=O)c1cccnc1N2C1CC1 [nevirapine]?
IC50 ([6]; Human immunodeficiency virus 1, TZM-b1, 48 h, read-out: IC50, inhibition of infectivity): 11 nM; antiviral effect, inhibition of infectivity [6]: potent, dosage-dependent antiviral effect

O=C1Nc2ccc(Cl)cc2[C@@](C#CC2CC2)(C(F)(F)F)O1 [efavirenz] was tested. Which “rescue of infectivity of mutant virus” value [7] did it give?
Its value is “not rescued”.

How did the virus infectivity, TZM-b1 reporter cells, percentage of wildtype trans-RT heterodimer [2] turn out when Vpr-p51^Y405A fusion protein was run?
The virus infectivity, TZM-b1 reporter cells, percentage of wildtype trans-RT heterodimer was 50%.

What about the virus infectivity, TZM-b1 reporter cells, percentage of wildtype trans heterodimer [1] of the same molecule?
The virus infectivity, TZM-b1 reporter cells, percentage of wildtype trans heterodimer was 25%.

For Vpr-p51^W406A fusion protein, which virus infectivity, TZM-b1 reporter cells, percentage of wildtype trans-RT heterodimer [2] is on record?
The virus infectivity, TZM-b1 reporter cells, percentage of wildtype trans-RT heterodimer was less than 50%.

How did the “RT heterodimerization, destabilization” value [8] turn out when “2′,5′-bis-O-(tert-butyldimethylsilyl)-beta-D-ribofuranosyl 3′-spiro-5″-(4″-amino-1″,2″-oxathiole 2″,2″-dioxide) [TSAO]” was run?
Its value is “can destabilize HIV-1 RT heterodimerization”.
